# Data from paper PMC5888981, “Scopoletin 8-hydroxylase: a novel enzyme involved in coumarin biosynthesis and iron-deficiency responses in Arabidopsis” (Journal of Experimental Botany, 2018).
# Substrate: COc1cc2ccc(=O)oc2cc1O
# Test: purified protein
# Format: biochemical, Arabidopsis thaliana
# Conditions: Fe2+, 2-oxoglutarate and ascorbate, pH 8.0 (methods b28 say optimal pH 7.0), 31.5 °C, 10 min, 0.1 M potassium phosphate
protein,measurement,value
"S8H (scopoletin 8-hydroxylase; At3g12900 oxidoreductase) (Arabidopsis thaliana) (protein, S8H ORF in pET28a+ (BamHI/XhoI), 6xHis-tagged, no tag removal described; E. coli Rosetta 2; TALON purified) GINFEDQTTLFNFVVREGNGVKGMIDSGLSSVPRPFVQPLSERIPTQKALTCEATQPIDLSNLDGPQHKEVAKQIVEAAETLGFFQVVNHGVSVELLELLKSSAHEFFAQAPEEKSMYLKEVSPSKLVKYGTSFVPDKEKAIEWKDYVSMLYTNDSEALQHWPQPCREVALEFLNSSMEMVKNVVNILMENVGVTLEEEKMNGLMGTKMVNMNYYPTCPSPELTVGVGRHSDMGMLTVLLQDGIGGLYVKLDNGEWAEIPPVHGALVINIGDTLQILSNGKYKSAEHRVRTTNIGSRVSVPIFTAPNPSQKVGPLPEVVKRDGVARYKEFLFQDYMNNFFGQPHDGKKSLDFARAE",Km,11 ± 2 µM
same,kcat,1.73 ± 0.09 s^–1
